The results in this text go back to US20260250325A1, “Antiviral Polypeptide Membrane Fusion Inhibitor, and Preparation Method and Application Thereof” (priority 2025, published 2026).

To fix the notation:
T1: F protein of RSV A long virus strain (respiratory syncytial virus, RSV A long virus strain), P12568
T1 chain: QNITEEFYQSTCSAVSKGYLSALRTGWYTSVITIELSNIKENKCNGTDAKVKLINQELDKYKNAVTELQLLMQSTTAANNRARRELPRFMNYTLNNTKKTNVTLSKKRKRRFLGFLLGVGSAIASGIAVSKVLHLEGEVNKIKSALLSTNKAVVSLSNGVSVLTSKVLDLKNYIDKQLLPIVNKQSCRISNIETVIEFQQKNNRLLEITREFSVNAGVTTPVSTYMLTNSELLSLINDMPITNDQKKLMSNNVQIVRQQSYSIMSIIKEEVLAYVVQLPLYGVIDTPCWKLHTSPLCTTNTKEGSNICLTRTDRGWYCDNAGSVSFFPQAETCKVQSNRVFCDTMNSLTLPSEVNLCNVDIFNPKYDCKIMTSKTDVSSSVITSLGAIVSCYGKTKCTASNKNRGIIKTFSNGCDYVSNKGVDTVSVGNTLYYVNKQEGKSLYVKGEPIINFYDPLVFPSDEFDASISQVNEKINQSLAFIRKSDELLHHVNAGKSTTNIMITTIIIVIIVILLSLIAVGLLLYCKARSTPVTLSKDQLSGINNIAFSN

The first assay deals with T1, F protein of RSV A long virus strain …. As to the kind of experiment: cell-based or functional assay.
DEFDKKIEEVNKKIEESLKKIEESDKKLEEVNEAAAKK (modifications not checked) [Compound 14] showed an IC50/nM, Cell fusion inhibition activity (plaque reduction, RSV A long strain, HEp-2 cells) of 9.9 nM.
As for FDASIEEVNRRIEESLRRIEESDRRLEEVNAEAAAKK (modifications not checked) [Compound 42], the IC50/nM, Cell fusion inhibition activity (plaque reduction, RSV A long strain, HEp-2 cells) was found to be 11.8 nM.
On the same count and under the same terms, in the case of SDELVNKKIEFDKKINQSLKKIEESDKKKLEAAAKK (modifications not checked) [Compound 51] it was 9.9 nM.
As for DEFDKKKIEEVNKKIEESLKKIEESDKKLEEVEAAAKK (modifications not checked) [Compound 22], the IC50/nM, Cell fusion inhibition activity (plaque reduction, RSV A long strain, HEp-2 cells) was determined as 11.3 nM.
DEFDKKIEEVNKKIEESLKKIEESDKKLEAAAKK (modifications not checked) [Compound 17] had an IC50/nM, Cell fusion inhibition activity (plaque reduction, RSV A long strain, HEp-2 cells) of 17.6 nM.
Consider SDEFDKKIEEVNKKIEESLKKIEESDKKLGSGSGK (modifications not checked) [Compound 20], for which the IC50/nM, Cell fusion inhibition activity (plaque reduction, RSV A long strain, HEp-2 cells) was 19.8 nM.
As to YDELVFDASQVNEKINQSLEKIRKSDELLHNVGSGSGK (modifications not checked) [Compound 25], the IC50/nM, Cell fusion inhibition activity (plaque reduction, RSV A long strain, HEp-2 cells) came out at 28.7 nM.
For WDEFDASISQVNEKINQSLEEIRKSDELLHNVNALEAAAKK (modifications not checked) [Compound 38], the IC50/nM, Cell fusion inhibition activity (plaque reduction, RSV A long strain, HEp-2 cells) was found to be 14.6 nM.
Turning to LVKKIDEFDASISQVNEKINQSLEEIRKSDELLHNVGSGSGK (modifications not checked) [Compound 29], the IC50/nM, Cell fusion inhibition activity (plaque reduction, RSV A long strain, HEp-2 cells) was 19.3 nM.
WDEFDKKIEEVNKKIEESLKKIEESDKKLEEVNAEAAAKK (modifications not checked) [Compound 40]: the IC50/nM, Cell fusion inhibition activity (plaque reduction, RSV A long strain, HEp-2 cells) turned out to be 11.7 nM.

Substrate in another assay: F protein of hPIV Type 3 (hPIV3 C243) (human parainfluenza virus type 3, strain C243)
As to the kind of experiment: cell-based or functional assay.
As to DEFDKKIEEVNKKIEESLKKIEESDKKLEEVNEAAAKK (modifications not checked) [Compound 14], the EC50 (nM), plaque reduction, hPIV3 C243, LLC-MK2 cells was found to be 31.4 nM.
On to FDASIEEVNRRIEESLRRIEESDRRLEEVNAEAAAKK (modifications not checked) [Compound 42], for which the EC50 (nM), plaque reduction, hPIV3 C243, LLC-MK2 cells is 18.9 nM.
Take SDELVNKKIEFDKKINQSLKKIEESDKKKLEAAAKK (modifications not checked) [Compound 51]: the EC50 (nM), plaque reduction, hPIV3 C243, LLC-MK2 cells stood at 18.8 nM.
Still for that read-out and setting: to DEFDKKKIEEVNKKIEESLKKIEESDKKLEEVEAAAKK (modifications not checked) [Compound 22] belongs 65.4 nM.
Consider DEFDKKIEEVNKKIEESLKKIEESDKKLEAAAKK (modifications not checked) [Compound 17], for which the EC50 (nM), plaque reduction, hPIV3 C243, LLC-MK2 cells amounted to 52.6 nM.
With SDEFDKKIEEVNKKIEESLKKIEESDKKLGSGSGK (modifications not checked) [Compound 20], the EC50 (nM), plaque reduction, hPIV3 C243, LLC-MK2 cells is 59.5 nM.
Still for that read-out and setting: in the case of YDELVFDASQVNEKINQSLEKIRKSDELLHNVGSGSGK (modifications not checked) [Compound 25] it was 29.4 nM; in that of WDEFDASISQVNEKINQSLEEIRKSDELLHNVNALEAAAKK (modifications not checked) [Compound 38], 26.4 nM; in that of LVKKIDEFDASISQVNEKINQSLEEIRKSDELLHNVGSGSGK (modifications not checked) [Compound 29], 26.3 nM.
With WDEFDKKIEEVNKKIEESLKKIEESDKKLEEVNAEAAAKK (modifications not checked) [Compound 40], the EC50 (nM), plaque reduction, hPIV3 C243, LLC-MK2 cells was 22.2 nM.

Substrate in another assay: F protein of hMPV virus strain A2 (human metapneumovirus, strain A2)
As to the kind of experiment: cell-based or functional assay.
In the case of DEFDKKIEEVNKKIEESLKKIEESDKKLEEVNEAAAKK (modifications not checked) [Compound 14], the EC50 (nM), plaque reduction, hMPV A2, Vero cells came out at 18.9 nM.
The same measure, in the same setting: to FDASIEEVNRRIEESLRRIEESDRRLEEVNAEAAAKK (modifications not checked) [Compound 42] belongs 26.1 nM; to SDELVNKKIEFDKKINQSLKKIEESDKKKLEAAAKK (modifications not checked) [Compound 51], 18.8 nM.
Same read-out and setting: to DEFDKKKIEEVNKKIEESLKKIEESDKKLEEVEAAAKK (modifications not checked) [Compound 22] belongs 88.4 nM; to DEFDKKIEEVNKKIEESLKKIEESDKKLEAAAKK (modifications not checked) [Compound 17], 8.78 nM.
On the same count and under the same terms, in the case of SDEFDKKIEEVNKKIEESLKKIEESDKKLGSGSGK (modifications not checked) [Compound 20] it was 7.47 nM.
Turning to YDELVFDASQVNEKINQSLEKIRKSDELLHNVGSGSGK (modifications not checked) [Compound 25], the EC50 (nM), plaque reduction, hMPV A2, Vero cells turned out to be 86.4 nM.
Regarding WDEFDASISQVNEKINQSLEEIRKSDELLHNVNALEAAAKK (modifications not checked) [Compound 38], the EC50 (nM), plaque reduction, hMPV A2, Vero cells is 128 nM.
On to LVKKIDEFDASISQVNEKINQSLEEIRKSDELLHNVGSGSGK (modifications not checked) [Compound 29], for which the EC50 (nM), plaque reduction, hMPV A2, Vero cells is 41.6 nM.
Regarding WDEFDKKIEEVNKKIEESLKKIEESDKKLEEVNAEAAAKK (modifications not checked) [Compound 40], the EC50 (nM), plaque reduction, hMPV A2, Vero cells came to 13.8 nM.

Substrate in a further assay: F protein of hMPV virus strain B1 (human metapneumovirus, strain B1)
As to the kind of experiment: cell-based or functional assay.
Turning to DEFDKKIEEVNKKIEESLKKIEESDKKLEEVNEAAAKK (modifications not checked) [Compound 14], the EC50 (nM), plaque reduction, hMPV B1, Vero cells was 5.36 nM.
In the case of FDASIEEVNRRIEESLRRIEESDRRLEEVNAEAAAKK (modifications not checked) [Compound 42], the EC50 (nM), plaque reduction, hMPV B1, Vero cells came to 10.1 nM.
Regarding SDELVNKKIEFDKKINQSLKKIEESDKKKLEAAAKK (modifications not checked) [Compound 51], the EC50 (nM), plaque reduction, hMPV B1, Vero cells came out at 3.82 nM.
DEFDKKKIEEVNKKIEESLKKIEESDKKLEEVEAAAKK (modifications not checked) [Compound 22]: the EC50 (nM), plaque reduction, hMPV B1, Vero cells was found to be 18 nM.
For the molecule DEFDKKIEEVNKKIEESLKKIEESDKKLEAAAKK (modifications not checked) [Compound 17], the EC50 (nM), plaque reduction, hMPV B1, Vero cells worked out at 3.61 nM.
Regarding SDEFDKKIEEVNKKIEESLKKIEESDKKLGSGSGK (modifications not checked) [Compound 20], the EC50 (nM), plaque reduction, hMPV B1, Vero cells was determined as 4.27 nM.
YDELVFDASQVNEKINQSLEKIRKSDELLHNVGSGSGK (modifications not checked) [Compound 25]: the EC50 (nM), plaque reduction, hMPV B1, Vero cells came to 38.1 nM.
Take WDEFDASISQVNEKINQSLEEIRKSDELLHNVNALEAAAKK (modifications not checked) [Compound 38]: the EC50 (nM), plaque reduction, hMPV B1, Vero cells is 16.6 nM.
For the molecule LVKKIDEFDASISQVNEKINQSLEEIRKSDELLHNVGSGSGK (modifications not checked) [Compound 29], the EC50 (nM), plaque reduction, hMPV B1, Vero cells was found to be 11.1 nM.
The same measure, in the same setting: to WDEFDKKIEEVNKKIEESLKKIEESDKKLEEVNAEAAAKK (modifications not checked) [Compound 40] belongs 7.47 nM.

The target of a further assay is hPIV-N51 (139-189) (human parainfluenza virus (hPIV)).
Chain of hPIV-N51 (139-189) (human parainfluenza virus (hPIV)) (P06828 139-189): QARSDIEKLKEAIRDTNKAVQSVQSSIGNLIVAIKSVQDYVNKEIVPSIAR
Assay: not given
By Kd is commonly meant the constant that tells how readily two partners part at equilibrium. DEFDKKIEEVNKKIEESLKKIEESDKKLEEVNEAAAKK (modifications not checked) [Compound 14] came in with a dissociation constant (Kd) of 495 nM.
Consider FDASIEEVNRRIEESLRRIEESDRRLEEVNAEAAAKK (modifications not checked) [Compound 42], for which the Kd is 485 nM.
Take SDELVNKKIEFDKKINQSLKKIEESDKKKLEAAAKK (modifications not checked) [Compound 51]: the Kd is 51.4 nM.
DEFDKKKIEEVNKKIEESLKKIEESDKKLEEVEAAAKK (modifications not checked) [Compound 22] returned a dissociation constant (Kd) of 20800 nM.
DEFDKKIEEVNKKIEESLKKIEESDKKLEAAAKK (modifications not checked) [Compound 17] registered an equilibrium dissociation constant (Kd) of 314 nM.
Regarding SDEFDKKIEEVNKKIEESLKKIEESDKKLGSGSGK (modifications not checked) [Compound 20], the Kd is 6800 nM.
The molecule YDELVFDASQVNEKINQSLEKIRKSDELLHNVGSGSGK (modifications not checked) [Compound 25] yielded a Kd of 74600 nM.
In the case of WDEFDASISQVNEKINQSLEEIRKSDELLHNVNALEAAAKK (modifications not checked) [Compound 38], the Kd was determined as 24500 nM.
On the same count and under the same terms, in the case of LVKKIDEFDASISQVNEKINQSLEEIRKSDELLHNVGSGSGK (modifications not checked) [Compound 29] it was 1730 nM; in that of WDEFDKKIEEVNKKIEESLKKIEESDKKLEEVNAEAAAKK (modifications not checked) [Compound 40], 2270 nM.
